From patent US20220098307A1 (WUHAN YZY BIOPHARMA, published 2022)

T1: human CEA (human, UniProt P06731 35-685)
T1 sequence: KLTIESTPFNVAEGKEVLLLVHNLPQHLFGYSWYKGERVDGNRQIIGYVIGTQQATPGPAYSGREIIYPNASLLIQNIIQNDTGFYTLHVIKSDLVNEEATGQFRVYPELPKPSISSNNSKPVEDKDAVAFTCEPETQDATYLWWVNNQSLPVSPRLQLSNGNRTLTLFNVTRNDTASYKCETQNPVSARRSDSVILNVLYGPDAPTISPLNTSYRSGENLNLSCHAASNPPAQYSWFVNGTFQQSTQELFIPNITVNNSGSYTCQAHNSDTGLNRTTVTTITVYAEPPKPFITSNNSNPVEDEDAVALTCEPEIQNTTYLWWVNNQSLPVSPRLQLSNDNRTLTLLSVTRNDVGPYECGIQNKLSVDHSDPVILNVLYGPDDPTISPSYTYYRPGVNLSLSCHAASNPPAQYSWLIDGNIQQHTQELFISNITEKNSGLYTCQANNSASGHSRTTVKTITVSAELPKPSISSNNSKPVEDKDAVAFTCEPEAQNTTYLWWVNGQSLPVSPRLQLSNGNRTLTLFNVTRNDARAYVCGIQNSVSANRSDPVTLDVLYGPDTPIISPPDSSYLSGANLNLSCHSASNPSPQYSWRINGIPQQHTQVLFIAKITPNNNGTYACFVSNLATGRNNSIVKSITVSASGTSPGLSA


What was measured:
Human CD3ε = molecular target: T2, Human CD3ε (human, UniProt P07766 23-126); experiment: flow cytometry, human T cells
T2 construct: CD3 on T cells isolated from human whole blood
Procedure, shortened: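 For cell-surface binding, T cells served for the CD3 arm and antigen-positive tumor cells (e.g. MM.1S or RPMI 8226 for CD38) for the tumor arm.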

Monkey CD3 = molecular target: T3, Monkey CD3 (monkey); experiment: flow cytometry, monkey T cells
T3 construct: whole, on cells; also called CD3 of monkey CD3 positive T cells

human CEA = molecular target: T1, human CEA; experiment: flow cytometry, human tumor cells (table of the CEA series)
Source text: 1) Cell preparation: T cells isolated from CD3-positive human whole blood were used for a CD3 end affinity detection of multifunctional antibody molecule; positive tumor cells of corresponding antigen were used for detecting affinity of tumor antigen; for example, CD38-positive MM. 1S cells (purchased from the Cell Resource Center of Shanghai Institutes for Biological Sciences, Chinese Academy of Sciences) or RPMI 8226 cells (purchased from the Cell Resource Center of Shanghai Institutes for Biological Sciences, Chinese Academy of Sciences) were used for CD38 antigen detection, and PD-L1 positive H358 cells (purchased from the Cell Resource Center of Shanghai Institutes for Biological Sciences, Chinese Academy of Sciences) were used for PD-L1 antigen detection, and so on. The cells were resuspended with 1% FBS-PBS, adjusted to a density of 4×10⁶/ml, and 50 μl of cells were taken from each well, and then plated at 2×10⁵ per well. Cell plating was operated on ice
2) Addition of the antibody: according to the experimental design, the antibody was diluted gradually, and dilution of antibody was operated on ice. For example, the initial concentration of antibody for dilution was 3000 nM, and the antibody was diluted by 3 times with 11 concentration gradients. The diluted antibody was added to a cell well at 50 μl per well, mixed well, and shaked and incubated at 4° C. 1100 rpm/min for 2 h; after washing, the cells were resuspend in 1% FBS-PBS, and a diluted secondary antibody PE anti-human IgG FC (Biolegend, 409304) was added with a final concentration of 8 ug/ml and a volume of 50 μl/well. At the same time, a well only added with cells and secondary antibody was set as a control, the components were mixed well, and incubated under shaking at 1100 rpm/min at 4° C. for 1 h;
5) Data analysis: the data was analyzed by a flow analysis software FlowJo 7.6 thereby obtaining an average fluorescence intensity of the specific antibody concentration, plotted by a Graphpad Prism 5 with the antibody concentration (nM) as an abscissa and the average fluorescence intensity as an ordinate; the EC50 value was calculated by the method of One site—Specific binding, and the EC50 value indicated the cell affinity of the antibody to the corresponding target antigen.

Row | Binder | EC50 (Human CD3ε) | EC50 (Monkey CD3) | binding result (human CEA)
1 | M3IC-WT (bispecific antibody, structure 3 isotype control; CH2 WT; copies: 1 + 1 + 1 + 2) fusion heavy: not shown cross light: QTVVTQEPSLTVSPGGTVTLTCRSSTGAVTTSNYANWVQQKPGQAPRGLIGGTNKRAPGVPARFSGSLLGGKAALTLSGVQPEDEAEYYCALWYSNLWVFGGGTKVEIKSSASTKGPSVFPLAPSSKSTSGGTAALGCLVKDYFPEPVTVSWNSGALTSGVHTFPAVLQSSGLYSLSSVVTVPSSSLGTQTYICNVNHKPSNTKVDKKVEPKSC heavy: EVKLDETGGGLVQPGRPMKLSCVASGFTFSDYWMNWVRQSPEKGLEWVAQIRNKPYNYETYYSDSVKGRFTISRDDSKSSVYLQMNNLRVEDMGIYYCTGSYYGMDYWGQGTSVTVSSASTKGPSVFPLAPSSKSTSGGTAALGCLVKDYFPEPVTVSWNSGALTSGVHTFPAVLQSSGLYSLSSVVTVPSSSLGTQTYICNVNHKPSNTKVDKKVEPKSCDKTHTCPPCPAPELLGGPSVFLFPPKPKDTLMISRTPEVTCVVVDVSHEDPEVKFNWYVDGVEVHNAKTKPREEQYNSTYRVVSVLTVLHQDWLNGKEYKCKVSNKALPAPIEKTISKAKGQPREPQVCTLPPSRDELTKNQVSLSCAVKGFYPSDIAVEWESNGQPENNYKTTPPVLDSDGSFFLVSKLTVDKSRWQQGNVFSCSVMHEALHNRFTQKSLSLSPGK light: DVVMTQTPLSLPVSLGDQASISCRSSQSLVHSNGNTYLRWYLQKPGQSPKVLIYKVSNRFSGVPDRFSGSGSGTDFTLKISRVEAEDLGVYFCSQSTHVPWTFGGGTKLEIKRTVAAPSVFIFPPSDEQLKSGTASVVCLLNNFYPREAKVQWKVDNALQSGNSQESVTEQDSKDSTYSLSSTLTLSKADYEKHKVYACEVTHQGLSSPVTKSFNRGEC | 637 nM | 709 nM | no binding
2 | M3IC-AAG (bispecific antibody, structure 3 isotype control; CH2 AAG; copies: 1 + 1 + 1 + 2) fusion heavy: not shown cross light: QTVVTQEPSLTVSPGGTVTLTCRSSTGAVTTSNYANWVQQKPGQAPRGLIGGTNKRAPGVPARFSGSLLGGKAALTLSGVQPEDEAEYYCALWYSNLWVFGGGTKVEIKSSASTKGPSVFPLAPSSKSTSGGTAALGCLVKDYFPEPVTVSWNSGALTSGVHTFPAVLQSSGLYSLSSVVTVPSSSLGTQTYICNVNHKPSNTKVDKKVEPKSC heavy: EVKLDETGGGLVQPGRPMKLSCVASGFTFSDYWMNWVRQSPEKGLEWVAQIRNKPYNYETYYSDSVKGRFTISRDDSKSSVYLQMNNLRVEDMGIYYCTGSYYGMDYWGQGTSVTVSSASTKGPSVFPLAPSSKSTSGGTAALGCLVKDYFPEPVTVSWNSGALTSGVHTFPAVLQSSGLYSLSSVVTVPSSSLGTQTYICNVNHKPSNTKVDKKVEPKSCDKTHTCPPCPAPEAAGGPSVFLFPPKPKDTLMISRTPEVTCVVVDVSHEDPEVKFNWYVDGVEVHNAKTKPREEQYNSTYRVVSVLTVLHQDWLNGKEYKCKVSNKALGAPIEKTISKAKGQPREPQVCTLPPSRDELTKNQVSLSCAVKGFYPSDIAVEWESNGQPENNYKTTPPVLDSDGSFFLVSKLTVDKSRWQQGNVFSCSVMHEALHNRFTQKSLSLSPGK light: DVVMTQTPLSLPVSLGDQASISCRSSQSLVHSNGNTYLRWYLQKPGQSPKVLIYKVSNRFSGVPDRFSGSGSGTDFTLKISRVEAEDLGVYFCSQSTHVPWTFGGGTKLEIKRTVAAPSVFIFPPSDEQLKSGTASVVCLLNNFYPREAKVQWKVDNALQSGNSQESVTEQDSKDSTYSLSSTLTLSKADYEKHKVYACEVTHQGLSSPVTKSFNRGEC | 606 nM | 659 nM | no binding
3 | M3IC-FES (bispecific antibody, structure 3 isotype control; CH2 FES; copies: 1 + 1 + 1 + 2) fusion heavy: EVKLDETGGGLVQPGRPMKLSCVASGFTFSDYWMNWVRQSPEKGLEWVAQIRNKPYNYETYYSDSVKGRFTISRDDSKSSVYLQMNNLRVEDMGIYYCTGSYYGMDYWGQGTSVTVSSASTKGPSVFPLAPSSKSTSGGTAALGCLVKDYFPEPVTVSWNSGALTSGVHTFPAVLQSSGLYSLSSVVTVPSSSLGTQTYICNVNHKPSNTKVDKKVEPKSCGGGGSGGGGSQVQLVESGGGVVQPGRSLRLSCAASGFTFSTYAMNWVRQAPGKGLEWVARIRSKYNNYATYYADSVKDRFTISRDDSKNTLYLQMNSLRAEDTAVYYCARHGNFGNSYVSWFAYWGQGTLVTVSSASVAAPSVFIFPPSDEQLKSGTASVVCLLNNFYPREAKVQWKVDNALQSGNSQESVTEQDSKDSTYSLSSTLTLSKADYEKHKVYACEVTHQGLSSPVTKSFNRGECDKTHTCPPCPAPEFEGGPSVFLFPPKPKDTLMISRTPEVTCVVVDVSHEDPEVKFNWYVDGVEVHNAKTKPREEQYNSTYRVVSVLTVLHQDWLNGKEYKCKVSNKALPASIEKTISKAKGQPREPQVYTLPPCRDELTKNQVSLWCLVKGFYPSDIAVEWESNGQPENNYKTTPPVLDSDGSFFLYSKLTVDKSRWQQGNVFSCSVMHEALHNHYTQKSLSLSPGK cross light: QTVVTQEPSLTVSPGGTVTLTCRSSTGAVTTSNYANWVQQKPGQAPRGLIGGTNKRAPGVPARFSGSLLGGKAALTLSGVQPEDEAEYYCALWYSNLWVFGGGTKVEIKSSASTKGPSVFPLAPSSKSTSGGTAALGCLVKDYFPEPVTVSWNSGALTSGVHTFPAVLQSSGLYSLSSVVTVPSSSLGTQTYICNVNHKPSNTKVDKKVEPKSC heavy: EVKLDETGGGLVQPGRPMKLSCVASGFTFSDYWMNWVRQSPEKGLEWVAQIRNKPYNYETYYSDSVKGRFTISRDDSKSSVYLQMNNLRVEDMGIYYCTGSYYGMDYWGQGTSVTVSSASTKGPSVFPLAPSSKSTSGGTAALGCLVKDYFPEPVTVSWNSGALTSGVHTFPAVLQSSGLYSLSSVVTVPSSSLGTQTYICNVNHKPSNTKVDKKVEPKSCDKTHTCPPCPAPEFEGGPSVFLFPPKPKDTLMISRTPEVTCVVVDVSHEDPEVKFNWYVDGVEVHNAKTKPREEQYNSTYRVVSVLTVLHQDWLNGKEYKCKVSNKALPASIEKTISKAKGQPREPQVCTLPPSRDELTKNQVSLSCAVKGFYPSDIAVEWESNGQPENNYKTTPPVLDSDGSFFLVSKLTVDKSRWQQGNVFSCSVMHEALHNRFTQKSLSLSPGK light: DVVMTQTPLSLPVSLGDQASISCRSSQSLVHSNGNTYLRWYLQKPGQSPKVLIYKVSNRFSGVPDRFSGSGSGTDFTLKISRVEAEDLGVYFCSQSTHVPWTFGGGTKLEIKRTVAAPSVFIFPPSDEQLKSGTASVVCLLNNFYPREAKVQWKVDNALQSGNSQESVTEQDSKDSTYSLSSTLTLSKADYEKHKVYACEVTHQGLSSPVTKSFNRGEC | 662 nM | 671 nM | no binding
